The results in this text go back to paper PMC7301157.

This test addresses Clb3-Cdk1 (S. cerevisiae) (UniProt P24870).
Sequence of UniProt P24870 (P24870 whole entry, chain 1 of 2): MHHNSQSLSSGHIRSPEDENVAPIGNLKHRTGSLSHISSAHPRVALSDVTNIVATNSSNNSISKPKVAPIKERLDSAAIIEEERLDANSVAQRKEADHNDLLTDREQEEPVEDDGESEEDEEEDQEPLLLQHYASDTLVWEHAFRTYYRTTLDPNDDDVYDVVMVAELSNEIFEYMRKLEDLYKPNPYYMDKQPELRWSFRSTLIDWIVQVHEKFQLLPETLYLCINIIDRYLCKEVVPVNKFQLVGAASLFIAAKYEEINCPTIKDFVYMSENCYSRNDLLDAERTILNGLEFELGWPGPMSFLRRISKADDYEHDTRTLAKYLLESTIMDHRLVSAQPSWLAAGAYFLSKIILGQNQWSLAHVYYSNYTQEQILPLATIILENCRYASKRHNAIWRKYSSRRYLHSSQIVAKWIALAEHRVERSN
Sequence of UniProt P24870 (P00546 whole entry, chain 2 of 2, further chain): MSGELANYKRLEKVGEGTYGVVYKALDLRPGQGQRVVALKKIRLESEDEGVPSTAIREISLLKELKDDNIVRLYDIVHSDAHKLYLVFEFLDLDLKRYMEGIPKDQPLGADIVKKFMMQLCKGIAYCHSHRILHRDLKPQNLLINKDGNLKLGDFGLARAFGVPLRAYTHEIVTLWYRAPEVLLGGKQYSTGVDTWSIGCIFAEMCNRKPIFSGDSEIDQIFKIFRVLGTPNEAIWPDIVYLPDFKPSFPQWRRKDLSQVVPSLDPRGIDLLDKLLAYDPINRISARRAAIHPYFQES

Substance “Sic1(1–33 SPxA) model substrate with PPKGPNF (from UniProt P38634 1-33)” had an increase of the phosphorylation rate of the model substrate by Clb3-Cdk1 of 65 fold.
